Results on eight molecules are retold here after patent US20060275317A1, “Vaccine compositions for prevention of chronic and infectious diseases” (Biokit S.A., priority 2003, published 2006).

“Also recorded” adds a separate entry of the source.

The target in data set [1] is T1, chicken lysozyme (Gallus gallus, UniProt P00698). The data set is described as follows: Lysozyme inhibition assay (EnzCheck, fluorescein-labeled Micrococcus lysodeikticus). The class given is biochemical. As for the experimental part:
(§1) To test this hypothesis, the antibacterial activity of both human and chicken lysozyme, in the presence or absence of GST-Tp17, was assayed using an EnzCheck® lysozyme assay kit (Molecular Probes, Eugene, Oreg.). The assay comprises the use of Fluorescein-labeled Micrococcus lysodeikticus bacterial cells as a fluorescent substrate of lysozyme. In this Gram positive bacterium, the peptidoglycan layer is directly accessible to lysozyme, and has been Fluorescein-labeled such that fluorescence is naturally quenched. Upon lysozyme hydrolysis, quenching is relieved and fluorescein is released in a quantity that is proportional to lysozyme activity. The following experimental protocol was used.
(§2) A typical 100 μl reaction consisted of 25 μl of lysozyme solution (10 units for chicken lysozyme or 50 units for human lysozyme, dissolved in deionized water), 25 μl of the test protein solution and 50 μl of a suspension of fluorescein-labeled Micrococcus lysodeikticus (50 μg/ml). The reaction was incubated for 45 minutes at 37° C. and the fluorescence was measured (λexc.=485 nm; λemi.=520 nm) using a fluorescence multi-well plate reader model FLx800 (Bio TEK instruments, Winoosky, Vt.) equipped with KC junior data acquisition software (Bio TEK Instruments, Winoosky, Vt.). Each experimental point was expressed as the mean and standard deviation corresponding to the reading of three independent wells. Wells containing 50 μl of deoinized water and […] of Fluorescein-labeled Micrococcus lysodeikticus suspension were used as a blank. Two fold serial dilutions of test protein were used to vary the concentration of the test protein from 83.5 to 1.3 μg/well.

Data set [2] deals with human lysozyme. The data set is described as above. The data set is classed as biochemical. As for the experimental part:
as §1, §2

The target in data set [3] is T1, chicken lysozyme. The experiment in a line: Far Western blot lysozyme-protein interaction assay. The class given is binding. The following applies: 1, 5, 10 μg immobilized lysozyme; washes with 0.05% Tween 20. As for the experimental part:
(§3) In order to test this hypothesis, a Far-Western blot lysozyme-protein interaction assay was performed. The assay is summarized in FIG. 5 and comprises generally the following three steps: (1) immobilization of purified lysozyme onto a membrane; (2) probing of the membrane with a ligand likely to bind directly to the lysozyme; and (3) immunodetection of the bound lysozyme-ligand. A detailed experimental procedure is presented below.
(§4) Purified chicken egg white lysozyme and human breast milk lysozyme were purchased from Sigma-Aldrich (Madrid, Spain). Two series of aliquot fractions containing 1 μg, 5 μg, and 10 μg of purified lysozyme and a protein molecular weight marker (SeeBlue Plus II™, Invitrogen SA, Barcelona, Spain) were separated electrophoretically through a 4-12% SDS-PAGE gel using the conditions recommended by the supplier (Invitrogen). The gel was then processed for Western blotting as described in Sambrook et al. (1989) according to art known methods, and the proteins were electro-transferred to an Immobilon™ P PVDF membrane (Millipore Corp., Bedford, Mass.). The presence of lysozyme immobilized onto the PVDF membrane was assessed by staining for 1 minute with Ponceau S stain (Sigma-Aldrich, Madrid, Spain), and then destained by vigorous washing for 5 minutes with desionized water. The membrane was divided in two, each portion containing a protein ladder and three quantities of chicken or human lysozyme (1 μg, 5 μg and 10 μg per lane). Each membrane was then incubated for 16 hours at 4° C. in 5 ml of TBST (10 mM Tris-HCl, pH 8.0, 150 mM NaCl, 0.05% weight/vol. Tween 20™,) supplemented with 5% (weight/vol.) of non-fat skimmed dried SVELTESSE™milk (NESTLÉ, ESPAÑA, Barcelona, Spain) (to make TBST-milk). […]

The subject of data set [4] is human lysozyme. Described as above. The data set is classed as binding. The following applies: 1, 5, 10 μg immobilized lysozyme; washes with 0.05% Tween 20. As for the experimental part: as §3, §4
The target of data set [5] is T2, LIZIPAINA (chicken lysozyme) (Gallus gallus, UniProt P00698).
T2 construct: natural hen egg-derived chicken lysozyme used in commercially available medicinal preparations; purchased Boehringer Ingelheim, San Cugat del Vallés, Spain
T2 sequence (P00698 19-147): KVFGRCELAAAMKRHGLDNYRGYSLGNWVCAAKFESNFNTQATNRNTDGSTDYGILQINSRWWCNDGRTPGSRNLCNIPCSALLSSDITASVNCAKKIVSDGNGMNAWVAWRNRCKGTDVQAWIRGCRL
The experiment in a line: Inhibition of commercial chicken lysozyme preparation (EnzCheck). The class given is biochemical. To be noted: lysozyme 4 μg/ml; molar ratio 1:5 to 1:50 GST-Tp17, 1:16 to 1:160 Tp17-HIS. As for the experimental part:
(§5) Chicken Lysozyme is a potent antimicrobial enzyme active against both bacteria and viruses. Commercial preparations that contain Lysozyme as an active agent include, but are not limited to, LIZIPAINA® (Boehringer Ingelheim, San Cugat del Vallés, Spain) and LISOZIMA CHIESI (CHIESI ESPAÑA SA, Barcelona, Spain). […] To test this hypothesis, one tablet of each drug, LIZIPAINA® (containing 5 mg chicken lysozyme per tablet) and LISOZIMA CHIESI (containing 250 mg chicken lysozyme per tablet), was resuspended in deionized water (The Millipore Corporation, Bedford, Mass., USA) to adjust the Lysozyme concentration to 4 μg/ml. These samples were then incubated in absence or in presence of increasing amount of either GST-Tp17 or Tp17-HIS. In this experiment the molar ratio between chicken lysozyme and its cognate inhibitor was varied from 1:5 to 1:50 for GST-Tp17 and from 1:16 to 1:160 for Tp17-HIS. After an incubation period of 5 minutes at 20° C. the samples were assayed for lysozyme enzymatic activity using the EnzCheck® Lysozyme assay kit (E-22013; Molecular Probes Inc., Eugene, Oreg., USA) as recommended by the supplier guidelines.

For data set [6], the target named is T3, LISOZIMA CHIESI (chicken lysozyme) (Gallus gallus, UniProt P00698).
T3 construct: natural hen egg-derived chicken lysozyme used in commercially available medicinal preparations; purchased CHIESI ESPAÑA SA, Barcelona, Spain
T3 sequence (P00698 19-147): as above
The data set is described as above. The following applies: lysozyme 4 μg/ml; molar ratio 1:5 to 1:50 GST-Tp17. The class given is biochemical. As for the experimental part:
as §5

For data set [7], the system named is Micrococcus lysodeikticus. The following applies: pH 6.24, 25° C, Micrococcus lysodeikticus substrate; cited from earlier work.
The subject of data set [8] is human lysozyme. The experiment in a line: POD-labeled human lysozyme binding to immobilized β-APP forms (spot blot). The following applies: 10 μg spotted; POD-HuLYS diluted 1/1000. As for the experimental part:
To test whether the β-APP protein binds huLYS, we performed lysozyme binding assays using purified, recombinant forms of β-APP. Both sAPPα (product number: S9564) and sAPPα (302-612) (product number: S8065) were purchased from Sigma-Aldrich (Tres cantos, Madrid, Spain). 10 μg of each protein was spotted onto a Nytran membrane (Scleicher & Schüell, Dassel, Germany). Non-specific adsorption sites were blocked by incubation for one hour in TBST-milk. After three washes with TBST, the membrane was incubated for one hour with horse radish peroxidase (POD)-labeled human lysozyme diluted 1/1000 in TBST-milk. Next, the membrane was washed three times, for 5 minutes each wash, with TBST. Staining was performed by adding 5 ml of POD chromogenic substrate (TMB, product number: T0565, Sigma). […] Moreover, the β-APP/huLYS protein complex likely serves as a diagnostic marker of Alzheimer's disease.

The conditions of data set [9]: mature protein; cited from earlier work.
Data set [10] has as its system Micrococcus lysodeikticus. The data set is described as follows: Antibacterial activity of lysozymes in presence or absence of Tp17 (EnzCheck Lysozyme assay). To be noted: 1 unit human lysozyme or 230 units rLysozyme; 10 μg GST-Tp17 or Tp17-HIS. The data set is classed as biochemical. As for the experimental part:
as §1
In that context, we compared the antibacterial activity of human lysozyme (Ventria Bioscience, Sacramento, Calif., USA) and rLysozyme™ using the EnzCheck Lysozyme assay (E-22013; Molecular Probes, Eugene, Oreg.). We first determined that under the manufacturer's prescribed assay conditions, 1 unit of human lysozyme produced the same intensity of fluorescence as 230 units of rLysozyme™. Next, we measured the fluorescence intensity of either 1 unit of human lysozyme or 230 units of rLysozyme™, in the presence or absence of 10 μg of either GST-Tp17 or Tp17-HIS. […]

The mark [11] stands for this setting: 83.5 to 1.3 μg/well test protein.

T1 sequence (P00698 19-147): as above

Regarding “GST-Tp17: recombinant fusion protein of GST and Treponema pallidum 17 kDa antigen Tp17 (SEQ ID NO:29)”, the “inhibition of acetyl muramidase activity of chicken lysozyme” value with chicken lysozyme [1] (as little as 1.3 μg/well test protein, 10 units lysozyme, 45 min 37° C) is reported as more than 85%. Further, the “inhibition of acetyl muramidase activity of human lysozyme” value in the data set with human lysozyme [2] (as little as 1.3 μg/well test protein, 50 units lysozyme, 45 min 37° C) is recorded as more than 85%. The “binding to chicken lysozyme” value with chicken lysozyme [3] is reported as “detected binding”. The “binding to human lysozyme” value with human lysozyme [4] was “detected binding”. In addition, the “inhibition of enzymatic antibacterial activity of LIZIPAINA” value in data set [5] is reported as “strongly inhibited”. Also, the “inhibition of enzymatic antibacterial activity of LISOZIMA CHIESI” value in [6] was “strongly inhibited”.

With “natural human breast milk lysozyme: purified natural human breast milk lysozyme (L-6394; Sigma-Aldrich)”, in data set [7], the specific activity is listed as 101,000 units/mg protein.

With “recombinant human lysozyme: purified recombinant human lysozyme from transgenic rice (159-53LZ-90P; Ventria Bioscience)”, the specific activity in data set [7] is 187,000 units/mg protein.

On to “sAPPα: longer recombinant fragment of β-APP derived from the APP695 isoform (Sigma S9564)”, for which the “binding of POD-labeled huLYS to immobilized protein” value in the data set with human lysozyme [8] is given as “binding; also recorded: bound”.

B1: Tp17-HIS: recombinant mature Tp17 (residues 23 to 156) with histidine tail, expressed in E. coli EcBK633 (protein)
chain: VSCTTVCPHAGKAKAEKVECALKGGIFRGTLPAADCPGIDTTVTFNADGTAQKVELALEKKSAPSPLTYRGTWMVREDGIVELSLVSSEQSKAPHEKELYELIDSNSVRYMGAPGAGKPSKEMAPFYVLKKTKK
modifications: left off: small tags and cut ends
notes: recombinant mature Tp17 (residues 23 to 156) with histidine tail, expressed in E. coli EcBK633
B1: the “inhibition of enzymatic antibacterial activity of LIZIPAINA” value in data set [5] was “strongly inhibited”.

B2: E. coli Ivy: Escherichia coli inhibitor of vertebrate lysozyme (P45502) (protein)
chain: QDDLTISSLAKGETTKAAFNQMVQGHKLPAWVMKGGTYTPAQTVTLGDETYQVMSACKPHDCGSQRIAVMWSEKSNQMTGLFSTIDEKTSQEKLTWLNVNDALSIDGKTVLFAALTGSLENHPDGFNFK
Turning to B2, the pI in [9] is recorded as 5.51.

B3: GST-Tp47: control fusion protein of GST and T. pallidum Tp47 antigen (protein)
chain: CGSSHHETHYGYATLSYADYWAGELGQSRDVLLAGNAEADRAGDLDAGMFDAVSRATHGHGAFRQQFQYAVEVLGEKVLSKQETEDSRGRKKWEYETDPSVTKMVRASASFQDLGEDGEIKFEAVEGAVALADRASSFMVDSEEYKITNVKVHGMKFVPVAVPHELKGIAKEKFHFVEDSRVTENTNGLKTMLTEDSFSARKVSSMESPHDLVVDTVGTGYHSRFGSDAEASVMLKRADGSELSHREFIDYVMNFNTVRYDYYGDDASYTNLMASYGTKHSADSWWKTGRVPRISCGINYGFDRFKGSGPGYYRLTLIANGYRDVVADVRFLPKYEGNIDIGLKGKVLTIGGADAETLMDAAVDVFADGQPKLVSDQAVSLGQNVLSADFTPGTEYTVEVRFKEFGSVRAKVVAQ
modifications: left off: a dimerising Fc or GST
notes: control fusion protein of GST and T. pallidum Tp47 antigen
In the case of B3, the “inhibitory effect on chicken lysozyme acetyl muramidase activity” value with chicken lysozyme [1] (setting [11]) is listed as “did not exert any inhibitory effect”. The “inhibitory effect on human lysozyme acetyl muramidase activity” value in the data set on human lysozyme [2] (setting [11]) is given as “did not exert any inhibitory effect”. The “binding to chicken lysozyme” value with chicken lysozyme [3] was “No signal was detected”. For the same molecule, in the data set on human lysozyme [4], the “binding to human lysozyme” value was “No signal was detected”.

B4: human lysozyme: human lysozyme (NP_000230); breast milk (Sigma) or recombinant (Ventria) depending on the example (protein)
chain: KVFERCELARTLKRLGMDGYRGISLANWMCLAKWESGYNTRATNYNAGDRSTDYGIFQINSRYWCNDGKTPGAVNACHLSCSALLQDNIADAVACAKRVVRDPQGIRAWVAWRNRCQNRDVRQYVQGCGV
In the case of B4, the “susceptibility of antibacterial activity to inhibition by GST-Tp17 or Tp17-HIS” value in data set [10] was “strongly inhibited”.
